The values that follow come from patent US20250376533A1.

For test [1], the target named is cynomolgus CD40 antigen (ACROBiosystems) (cynomolgus) (UniProt G7PG38). As to the kind of experiment: ELISA, coated antigen. In general terms: In an ELISA, binding on a coated surface is turned into a signal by an enzyme label.
For test [2], the target named is human CD40 antigen (ACROBiosystems) (human) (UniProt P25942). Put plainly: ELISA, coated antigen.
Test [3] addresses cynomolgus CD40 antigen (ACROBiosystems) (cynomolgus) (UniProt G7PG38). Put plainly: ELISA, coated antigen. This is another data set of the same source.
Test [4] has as its target human CD40 antigen (ACROBiosystems) (human) (UniProt P25942). As to the kind of experiment: ELISA, coated antigen. The source holds these as a separate data set.
Test [5] has as its target CD40 on HEK-Blue CD40L cells (InvivoGen) (UniProt P25942). Put plainly: cell-based or functional assay.
Test [6] has as its target human PD-L1 antigen (ACROBiosystems) (human) (UniProt Q9NZQ7). As to the kind of experiment: ELISA, coated antigen.
For test [7], the target named is cynomolgus PD-L1 antigen (ACROBiosystems) (cynomolgus) (UniProt G7PSE7). As to the kind of experiment: ELISA, coated antigen.
Chain of cynomolgus PD-L1 antigen (ACROBiosystems) (cynomolgus) (G7PSE7 entry or part of it): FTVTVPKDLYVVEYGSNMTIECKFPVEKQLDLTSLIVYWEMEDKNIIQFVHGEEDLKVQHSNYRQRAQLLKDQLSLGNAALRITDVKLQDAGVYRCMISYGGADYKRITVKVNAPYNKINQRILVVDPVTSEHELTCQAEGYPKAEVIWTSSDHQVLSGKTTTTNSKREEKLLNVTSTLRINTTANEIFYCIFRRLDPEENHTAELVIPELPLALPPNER
In test [8] the target is human PD-L1 antigen (ACROBiosystems) (human) (UniProt Q9NZQ7). Put plainly: ELISA, coated antigen. The source holds these as a separate data set.
Chain of human PD-L1 antigen (ACROBiosystems) (human) (Q9NZQ7 19-238 limits assumed): as the sequence (G7PSE7 entry or part of it) above, with T33A, S34A, N62S, Q68R, R82Q, L173F, A185T, I192T, L215H counted along it
The target is the same in test [9]. As to the kind of experiment: BLI (Gator), antibody captured on PA probe, human PD-L1 in solution.

Like-named read-outs stand apart in the source and are kept apart here.

Chain of control CD40 monoclonal antibody CP-870893 (IMGT database ID 10523) (VH): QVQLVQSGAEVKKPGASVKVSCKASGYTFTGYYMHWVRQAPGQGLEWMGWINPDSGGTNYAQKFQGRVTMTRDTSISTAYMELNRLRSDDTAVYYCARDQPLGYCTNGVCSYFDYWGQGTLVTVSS
Chain of control CD40 monoclonal antibody CP-870893 (IMGT database ID 10523) (VL): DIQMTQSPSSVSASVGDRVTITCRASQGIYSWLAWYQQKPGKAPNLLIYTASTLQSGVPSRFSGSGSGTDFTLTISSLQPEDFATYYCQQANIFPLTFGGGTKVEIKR
Chain of CD40 on HEK-Blue CD40L cells (InvivoGen) (P25942 21-277 limits assumed): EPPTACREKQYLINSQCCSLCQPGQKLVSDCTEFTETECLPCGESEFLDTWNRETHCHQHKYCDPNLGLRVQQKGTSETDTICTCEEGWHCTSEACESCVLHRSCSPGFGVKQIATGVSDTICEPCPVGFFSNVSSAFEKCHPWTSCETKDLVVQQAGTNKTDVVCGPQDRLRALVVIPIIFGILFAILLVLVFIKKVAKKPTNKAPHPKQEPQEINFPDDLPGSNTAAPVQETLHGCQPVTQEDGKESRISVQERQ
Chain of human CD40 antigen (ACROBiosystems) (human) (P25942 21-193 limits assumed): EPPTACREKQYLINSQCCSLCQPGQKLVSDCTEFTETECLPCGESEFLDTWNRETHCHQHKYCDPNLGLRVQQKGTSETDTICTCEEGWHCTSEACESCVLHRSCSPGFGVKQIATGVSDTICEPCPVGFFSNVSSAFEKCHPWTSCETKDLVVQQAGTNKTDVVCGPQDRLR
Chain of cynomolgus CD40 antigen (ACROBiosystems) (cynomolgus) (G7PG38 entry or part of it): as the sequence (P25942 21-193 limits assumed) above, with G43S, H56R, R70Q, W89L, A95S, L101P, S106L, H142R, L172Q counted along it

As to “control CD40 monoclonal antibody CP-870893 (IMGT database ID 10523)”, the 50% effective concentration (EC50) in [1] was found to be 0.016 nM; in test [2] it was 0.016 nM; in [3], 0.018 nM; in test [4], 0.018 nM. The CD40 agonistic activity (A)/(B) Ratio, EC50 without over with CHO/PD-L1 in test [5] was found to be 0.9. The substance further returned a CD40 agonistic activity EC50 (nM) with CHO/PD-L1 (B), SEAP reporter in [5] of 0.123 nM. This substance also registered a CD40 agonistic activity EC50 (nM) without CHO/PD-L1 (A), SEAP reporter in [5] of 0.109 nM.
Turning to “control PD-L1 monoclonal antibody Durvalumab (IMGT database ID 10010)”, the concentration for a half-maximal effect (EC50) was 0.012 nM in test [6], 0.017 nM in test [7] and 0.014 nM in [8]. Besides, the off-rate constant (koff) in test [9] was 0.00265 s⁻¹.

The EC50 is the concentration that produces a half-maximal response. Read a high EC50 as a less potent agent. In general, koff refers to the rate constant with which the complex falls apart.
